Reference: patent US20030175276A1

Target: VEGF:sFlk-1 complex (human; mouse) (UniProt P15692)
Assay: capture ELISA: biotinylated sFlk-1 complexed with VEGF titrated onto wells coated with irrelevant IgM, concentration giving 50% maximal binding; extrapolated value

Sequence of VEGF:sFlk-1 complex (human; mouse) (P15692 other isoform, or with tags, fused parts or gaps limits assumed, chain 1 of 2): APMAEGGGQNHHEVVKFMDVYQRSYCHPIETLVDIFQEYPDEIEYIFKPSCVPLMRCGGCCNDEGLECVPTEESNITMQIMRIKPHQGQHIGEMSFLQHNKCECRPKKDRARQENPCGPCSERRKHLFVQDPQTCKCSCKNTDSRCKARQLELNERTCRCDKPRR
Sequence of VEGF:sFlk-1 complex (human; mouse) (P35918 20-762 limits assumed, chain 2 of 2, further chain): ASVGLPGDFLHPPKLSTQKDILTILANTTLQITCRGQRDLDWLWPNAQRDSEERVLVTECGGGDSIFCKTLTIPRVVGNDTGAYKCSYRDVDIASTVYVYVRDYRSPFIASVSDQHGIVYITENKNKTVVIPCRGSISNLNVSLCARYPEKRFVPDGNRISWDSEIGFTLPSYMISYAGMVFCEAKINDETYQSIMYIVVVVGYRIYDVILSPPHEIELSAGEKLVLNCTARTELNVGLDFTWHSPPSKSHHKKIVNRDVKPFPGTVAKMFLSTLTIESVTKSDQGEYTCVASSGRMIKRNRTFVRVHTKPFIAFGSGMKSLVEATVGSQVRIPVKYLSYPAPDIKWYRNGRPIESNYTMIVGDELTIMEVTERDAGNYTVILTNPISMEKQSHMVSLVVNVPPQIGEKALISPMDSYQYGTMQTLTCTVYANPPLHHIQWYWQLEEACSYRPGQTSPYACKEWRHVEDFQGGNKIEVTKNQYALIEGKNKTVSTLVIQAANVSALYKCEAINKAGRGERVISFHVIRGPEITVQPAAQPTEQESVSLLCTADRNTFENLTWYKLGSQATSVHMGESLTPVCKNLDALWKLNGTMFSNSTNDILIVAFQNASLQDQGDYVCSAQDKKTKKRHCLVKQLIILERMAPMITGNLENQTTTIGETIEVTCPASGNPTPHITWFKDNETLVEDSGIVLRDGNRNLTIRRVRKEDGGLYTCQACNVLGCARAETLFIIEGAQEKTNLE

EC50: 600 nM
Substance: irrelevant IgM (negative control of Table 2) (antibody)
